Laboratory results as given in article PMC10393192, “Structure and DNA-bridging activity of the essential Rec114–Mei4 trimer interface”.

Columns and labels:
[1] = target: T1, Rec114(388-428);Mei4(13-43) (Saccharomyces cerevisiae;Saccharomyces cerevisiae) (UniProt P32841+P29467); assay: EMSA; conditions: EMSA: 25 mM Tris-HCl pH 7.4, 100 mM NaCl, 5 ng DNA, 20 min, room temperature; AFM: 25 mM HEPES-NaOH pH 7.4, 5 mM MgCl2, 50 mM NaCl, 10% glycerol, 30 min, RT …
T1 sequence 1: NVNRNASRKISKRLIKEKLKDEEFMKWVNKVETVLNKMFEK
T1 sequence 2: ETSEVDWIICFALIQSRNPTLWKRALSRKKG

[2] = target: T2, Rec114(388-428) K399A/R400A;Mei4N K399A;R400A (Saccharomyces cerevisiae;Saccharomyces cerevisiae) (UniProt P32841+P29467); assay: EMSA; conditions: EMSA: 25 mM Tris-HCl pH 7.4, 100 mM NaCl, 5 ng DNA, 20 min, room temperature; AFM: 25 mM HEPES-NaOH pH 7.4, 5 mM MgCl2, 50 mM NaCl, 10% glycerol, 30 min, RT …
T2 sequence 1: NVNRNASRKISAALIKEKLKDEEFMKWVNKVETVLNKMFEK
T2 sequence 2: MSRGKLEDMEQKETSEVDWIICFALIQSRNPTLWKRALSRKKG

[3] = target: T3, Rec114(388-428);Mei4N (Saccharomyces cerevisiae;Saccharomyces cerevisiae) (UniProt P32841+P29467); assay: EMSA; conditions: EMSA: 25 mM Tris-HCl pH 7.4, 100 mM NaCl, 5 ng DNA, 20 min, room temperature; AFM: 25 mM HEPES-NaOH pH 7.4, 5 mM MgCl2, 50 mM NaCl, 10% glycerol, 30 min, RT …
T3 sequence 1: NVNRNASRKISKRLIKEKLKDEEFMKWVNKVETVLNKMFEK
T3 sequence 2: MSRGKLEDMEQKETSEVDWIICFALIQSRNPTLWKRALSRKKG

[4] = target: T4, Rec114(388-428) R395A/K396A;Mei4N R395A;K396A (Saccharomyces cerevisiae;Saccharomyces cerevisiae) (UniProt P32841+P29467); assay: EMSA; conditions: EMSA: 25 mM Tris-HCl pH 7.4, 100 mM NaCl, 5 ng DNA, 20 min, room temperature; AFM: 25 mM HEPES-NaOH pH 7.4, 5 mM MgCl2, 50 mM NaCl, 10% glycerol, 30 min, RT …
T4 sequence 1: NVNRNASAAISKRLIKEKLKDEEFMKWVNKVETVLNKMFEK
T4 sequence 2: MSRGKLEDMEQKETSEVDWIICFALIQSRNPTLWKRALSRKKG

[5] = target: T5, Rec114(325-428);Mei4(1-90) (Saccharomyces cerevisiae;Saccharomyces cerevisiae) (UniProt P32841+P29467); assay: EMSA; conditions: EMSA: 25 mM Tris-HCl pH 7.4, 100 mM NaCl, 5 ng DNA, 20 min, room temperature; AFM: 25 mM HEPES-NaOH pH 7.4, 5 mM MgCl2, 50 mM NaCl, 10% glycerol, 30 min, RT …
T5 sequence 1: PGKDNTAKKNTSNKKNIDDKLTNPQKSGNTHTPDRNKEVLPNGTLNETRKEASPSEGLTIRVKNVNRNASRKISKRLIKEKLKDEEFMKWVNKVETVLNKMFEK
T5 sequence 2: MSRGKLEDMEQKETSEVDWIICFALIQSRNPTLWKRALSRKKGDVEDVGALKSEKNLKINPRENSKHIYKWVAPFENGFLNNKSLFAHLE

[6] = target: T6, Rec114(388-428) K403A/K407A;Mei4N K403A;K407A (Saccharomyces cerevisiae;Saccharomyces cerevisiae) (UniProt P32841+P29467); assay: EMSA; conditions: EMSA: 25 mM Tris-HCl pH 7.4, 100 mM NaCl, 5 ng DNA, 20 min, room temperature; AFM: 25 mM HEPES-NaOH pH 7.4, 5 mM MgCl2, 50 mM NaCl, 10% glycerol, 30 min, RT …
T6 sequence 1: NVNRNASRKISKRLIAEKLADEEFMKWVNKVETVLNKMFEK
T6 sequence 2: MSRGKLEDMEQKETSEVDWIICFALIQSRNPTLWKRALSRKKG

[7] = target: T7, Rec114(386-428);Mei4N (Saccharomyces cerevisiae;Saccharomyces cerevisiae) (UniProt P32841+P29467); assay: EMSA; conditions: EMSA: 25 mM Tris-HCl pH 7.4, 100 mM NaCl, 5 ng DNA, 20 min, room temperature; AFM: 25 mM HEPES-NaOH pH 7.4, 5 mM MgCl2, 50 mM NaCl, 10% glycerol, 30 min, RT …
T7 sequence 1: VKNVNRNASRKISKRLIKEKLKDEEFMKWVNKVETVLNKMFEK
T7 sequence 2: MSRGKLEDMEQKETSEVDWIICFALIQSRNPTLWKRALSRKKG

[8] = target: T8, Rec114C;Mei4N-ybbR (Saccharomyces cerevisiae;Saccharomyces cerevisiae) (UniProt P32841+P29467); assay: EMSA; conditions: EMSA: 25 mM Tris-HCl pH 7.4, 100 mM NaCl, 5 ng DNA, 20 min, room temperature; AFM: 25 mM HEPES-NaOH pH 7.4, 5 mM MgCl2, 50 mM NaCl, 10% glycerol, 30 min, RT …
T8 sequence 1: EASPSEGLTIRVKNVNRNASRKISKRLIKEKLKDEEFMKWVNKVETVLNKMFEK
T8 sequence 2: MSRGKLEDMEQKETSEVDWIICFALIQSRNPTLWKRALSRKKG

[9] = target: T9, Rec114C;Mei4N (Saccharomyces cerevisiae;Saccharomyces cerevisiae) (UniProt P32841+P29467); assay: EMSA; conditions: EMSA: 25 mM Tris-HCl pH 7.4, 100 mM NaCl, 5 ng DNA, 20 min, room temperature; AFM: 25 mM HEPES-NaOH pH 7.4, 5 mM MgCl2, 50 mM NaCl, 10% glycerol, 30 min, RT …
T9 sequence 1: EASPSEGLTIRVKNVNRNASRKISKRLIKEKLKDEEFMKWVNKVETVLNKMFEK
T9 sequence 2: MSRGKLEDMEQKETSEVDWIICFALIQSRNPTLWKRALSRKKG

[10] = target: T10, Rec114C;Mei4N-ybbR-LD650 (Saccharomyces cerevisiae;Saccharomyces cerevisiae) (UniProt P32841+P29467); assay: EMSA; conditions: EMSA: 25 mM Tris-HCl pH 7.4, 100 mM NaCl, 5 ng DNA, 20 min, room temperature; AFM: 25 mM HEPES-NaOH pH 7.4, 5 mM MgCl2, 50 mM NaCl, 10% glycerol, 30 min, RT …
T10 sequence 1: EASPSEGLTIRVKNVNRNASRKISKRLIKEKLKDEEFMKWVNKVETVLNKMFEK
T10 sequence 2: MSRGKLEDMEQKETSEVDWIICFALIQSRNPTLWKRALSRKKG

[11] = target: T11, mREC114C;mMEI4N (Mus musculus;Mus musculus) (UniProt Q9CWH4+Q8BRM6); assay: EMSA; conditions: EMSA: 25 mM Tris-HCl pH 7.4, 100 mM NaCl, 5 ng DNA, 20 min, room temperature; AFM: 25 mM HEPES-NaOH pH 7.4, 5 mM MgCl2, 50 mM NaCl, 10% glycerol, 30 min, RT …
T11 sequence 1: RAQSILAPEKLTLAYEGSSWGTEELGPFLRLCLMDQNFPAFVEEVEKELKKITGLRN
T11 sequence 2: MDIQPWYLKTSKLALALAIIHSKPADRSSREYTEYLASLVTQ

[12] = target: T12, Rec114(388-428) K417A/K424A;Mei4N K417A;K424A (Saccharomyces cerevisiae;Saccharomyces cerevisiae) (UniProt P32841+P29467); assay: EMSA; conditions: EMSA: 25 mM Tris-HCl pH 7.4, 100 mM NaCl, 5 ng DNA, 20 min, room temperature; AFM: 25 mM HEPES-NaOH pH 7.4, 5 mM MgCl2, 50 mM NaCl, 10% glycerol, 30 min, RT …
T12 sequence 1: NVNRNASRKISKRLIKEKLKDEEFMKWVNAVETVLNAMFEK
T12 sequence 2: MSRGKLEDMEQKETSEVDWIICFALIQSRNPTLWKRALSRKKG

[13] = target: T13, Rec114C;Mei4N (Saccharomyces cerevisiae;Saccharomyces …, UniProt P32841;P29467 375-428;1-43, |); assay: EMSA; C50; main text gives ~800 nM; EMSA: 25 mM Tris-HCl pH 7.4, 100 mM NaCl, 5 ng DNA, 20 min, room temperature; AFM: 25 mM HEPES-NaOH pH 7.4, 5 mM MgCl2, 50 mM NaCl, 10% glycerol, 30 min, RT; optical trap: same buffer plus 5 nM SYTOX Orange, RT; conditions: protein: recombinant;recombinant; tags: 6xHis-SUMO removed by Ulp1 (tagged chain);6xHis-SUMO removed by Ulp1 when on this chain; chain copies: 2;1; blunt
T13 sequence 1: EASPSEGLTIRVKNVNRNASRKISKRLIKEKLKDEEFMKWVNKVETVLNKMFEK
T13 sequence 2: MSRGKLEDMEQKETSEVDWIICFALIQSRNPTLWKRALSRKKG

[14] = target: T13, Rec114C;Mei4N; assay: EMSA; C50; EMSA: 25 mM Tris-HCl pH 7.4, 100 mM NaCl, 5 ng DNA, 20 min, room temperature; AFM: 25 mM HEPES-NaOH pH 7.4, 5 mM MgCl2, 50 mM NaCl, 10% glycerol, 30 min, RT; optical trap: same buffer plus 5 nM SYTOX Orange, RT; conditions: protein: recombinant;recombinant; tags: 6xHis-SUMO removed by Ulp1 (tagged chain);6xHis-SUMO removed by Ulp1 when on this chain; chain copies: 2;1; blunt

“ATCTGGCTCGCCTGACGGGATGCGACGAATTTTCGCCGCCCCATAAAGTACGCCCACGACTCGTTCGCACTGGCCCGTGCCGTGGAGTAGCTCATCTGGGCGTAATTCCGGGAAAGCTGCTCATACGAGACACCCAGCCCGGCAGCGATAT (double strand) [150-bp DNA]” gave a K half [1] of 100 nM, a K half [2] of 2000 nM and a K half [3] of 110 nM. For the same molecule, the K half [4] was 1000 nM, the K half [5] was 90 nM and the K half [6] was 1000 nM. It also gave a K half [7] of 110 nM, a K half [8] of 90 nM and a K half [9] of 90 nM. The K half [10] was 90 nM, the binding [11] was “binds more weakly” and the K half [12] was 900 nM.

B1: dsDNA20 (dsDNA)
DNA 1: AAAGATGTCCTAGCAATGTA
DNA 2: TACATTGCTAGGACATCTTT
In the case of B1, the “apparent K (half saturation)” value [13] is reported as 600 ± 100 nM.

B2: dsDNA80 (dsDNA)
DNA 1: CTAGTATAGAGCCGGCGCGCCATGTCTAGATAGCGTTAGGTCTGCCGAATAGTACTACTCGGATCCCGAGCGAACCACGC
DNA 2: GCGTGGTTCGCTCGGGATCCGAGTAGTACTATTCGGCAGACCTAACGCTATCTAGACATGGCGCGCCGGCTCTATACTAG
In the case of B2, the “apparent K (half saturation)” value [14] is reported as 100 ± 20 nM.
